Test results as given in patent US12252534 (Scripps Research, dated 2025).

Legend:
[1] = biological target: T1, human CD3 on human T cells (Jurkat) (human, UniProt P07766 23-207; P04234 22-171; P09693 23-182); experiment: flow cytometry titration on Jurkat cells
T1 construct: whole, on cells; also called huCD3+; cell surface CD3 on human (Jurkat) T cells
Excerpt: (§1) To express humanized Fabs in mammalian cells, VH genes (VH1 and VH2) and VL genes (VL1~VL10) shown in FIG. 2 were individually cloned into the pFUSE vector under the IL2 signal peptide sequence. Light and heavy chains expression vectors were used to co-transfect Expi293F cells according to manufacturer's protocol. On day 3 or 4, cultured media was harvested and secreted Fabs were purified by Protein G chromatography. Binding affinity of humanized candidates for human and cynomolgus T cells were evaluated by flow cytometry. Briefly, cells were incubated with humanized Fabs at 4° C. for 30 min and washed twice with staining buffer (1% BSA in PBS). […] After several washes, samples were acquired on a BD LSR II or BD Accuri C6 and analyzed using FlowJo 7.6.2 software.

[2] = biological target: T1, human CD3 on human T cells (Jurkat); experiment: flow cytometry, Jurkat cells, 1000 nM antibody
Excerpt: as §1

[3] = biological target: T1, human CD3 on human T cells (Jurkat); experiment: flow cytometry, Jurkat cells, 40 nM antibody
Excerpt: as §1

[4] = biological target: T1, human CD3 on human T cells (Jurkat); experiment: flow cytometry, Jurkat cells, 8 nM antibody
Excerpt: as §1

[5] = biological target: T1, human CD3 on human T cells (Jurkat); experiment: flow cytometry, Jurkat cells, 0 nM antibody (background)
Excerpt: as §1

[6] = biological target: T1, human CD3 on human T cells (Jurkat); experiment: flow cytometry, Jurkat cells, 0.32 nM antibody
Excerpt: as §1

[7] = biological target: T1, human CD3 on human T cells (Jurkat); experiment: flow cytometry, Jurkat cells, 200 nM antibody
Excerpt: as §1

[8] = biological target: T1, human CD3 on human T cells (Jurkat); experiment: flow cytometry, Jurkat cells, 1.6 nM antibody
Excerpt: as §1

[9] = biological target: T2, cynomolgus CD3 on cynomolgus T cells (HSC-F) (cynomolgus monkey, UniProt Q95LI5 22-198; Q95LI8 22-171; Q95LI7 23-181); experiment: flow cytometry on HSC-F (cyCD3+) cells, detected with PE-conjugated anti-human kappa secondary antibody; control is the secondary antibody alone
T2 construct: whole, on cells; also called cyCD3+; cell surface CD3 on cynomolgus (HSC-F) T cells
Excerpt: Flow cytometry was used to test binding of conjugates to cell surface CD3 on human (Jurkat) and cynomolgus (HSC-F) T cells or PSMA on C4-2 cells.

T1 sequence (P07766 23-207, chain 1 of 3): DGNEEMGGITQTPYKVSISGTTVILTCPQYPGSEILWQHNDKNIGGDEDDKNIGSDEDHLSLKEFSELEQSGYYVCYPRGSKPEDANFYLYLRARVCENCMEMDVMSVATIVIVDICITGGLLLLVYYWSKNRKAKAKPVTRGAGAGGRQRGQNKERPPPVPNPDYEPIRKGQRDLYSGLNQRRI
T1 sequence (P04234 22-171, chain 2 of 3): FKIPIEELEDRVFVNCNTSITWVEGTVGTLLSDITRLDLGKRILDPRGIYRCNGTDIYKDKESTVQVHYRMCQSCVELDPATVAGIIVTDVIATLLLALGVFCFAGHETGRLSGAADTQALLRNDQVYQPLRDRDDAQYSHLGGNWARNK
T1 sequence (P09693 23-182, chain 3 of 3): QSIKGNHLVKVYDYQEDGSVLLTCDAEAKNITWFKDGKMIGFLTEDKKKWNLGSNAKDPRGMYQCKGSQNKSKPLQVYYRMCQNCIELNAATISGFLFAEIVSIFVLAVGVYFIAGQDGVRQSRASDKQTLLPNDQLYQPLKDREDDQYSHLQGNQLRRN
T2 sequence (Q95LI5 22-198, chain 1 of 3): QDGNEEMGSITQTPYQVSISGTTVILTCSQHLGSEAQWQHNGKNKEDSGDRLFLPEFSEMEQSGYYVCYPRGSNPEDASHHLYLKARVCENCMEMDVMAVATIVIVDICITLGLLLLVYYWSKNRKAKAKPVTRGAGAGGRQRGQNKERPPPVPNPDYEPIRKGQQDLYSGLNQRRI
T2 sequence (Q95LI8 22-171, chain 2 of 3): as the sequence (P04234 22-171, chain 2 of 3) above, with I5V, N15K, I20V, S32T, D33N, I34N, T64A, S74N, V83L, H141R counted along it
T2 sequence (Q95LI7 23-181, chain 3 of 3): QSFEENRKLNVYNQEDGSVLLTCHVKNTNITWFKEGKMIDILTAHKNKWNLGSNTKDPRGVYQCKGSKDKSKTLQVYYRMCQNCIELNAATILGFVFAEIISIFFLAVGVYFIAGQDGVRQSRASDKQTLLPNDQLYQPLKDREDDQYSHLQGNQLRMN

Binder | IC50 [1] [nM] | MFI [2] | MFI [3] | MFI [4] | MFI [5] | MFI [6] | MFI [7] | MFI [8] | binding result [9]
HuL3H2 (Fab, V domains shown, Humanized Fab expressed in Expi293F; also called VL3 + VH2 humanized Fab) VH: EVQLVESGGGLVQPGGSLKLSCAASGFTFNTYAMNWVRQASGKGLEWVARIRSKYNNYATYYADSVKDRFTISRDDSKNTLYLQMNSLKTEDTAVYYCVRHGNFGNSYVSWFAYWGQGTLVTVSS VL: QAVVTQEPSLTVSPGGTVTLTCGSSTGAVTTSNYANWVQQKPGQAFRGLIGGTNKRAPWTPARFSGSLLGGKAALTISGAQPEDEAEYYCALWYSNLWVFGGGTKLTVL | 17.7 | 666 | 650 | 610 | 559 | 600 | 643 | 610 | –
Murine anti-CD3 (antibody, V domains shown, also called murine anti-CD3 VL/VH) VH: EVQLVESGGGLVQPKGSLKLSCAASGFTFNTYAMNWVRQAPGKGLEWVARIRSKYNNYATYYADSVKDRFTISRDDSQSILYLQMNNLKTEDTAMYYCVRHGNFGNSYVSWFAYWGQGTLVTVSS VL: QAVVTQESALTTSPGETVTLTCRSSTGAVTTSNYANWVQEKPDHLFTGLIGGTNKRAPGVPARFSGSLIGDKAALTITGAQTEDEAIYFCALWYSNLWVFGGGTKLTVL | 7.73 | 54400 | 41400 | 28500 | 1400 | 3560 | 50600 | 10500 | –
HuL9H2 (Fab, V domains shown, Humanized Fab expressed in Expi293F; also called VL9 + VH2 humanized Fab) VH: EVQLVESGGGLVQPGGSLKLSCAASGFTFNTYAMNWVRQASGKGLEWVARIRSKYNNYATYYADSVKDRFTISRDDSKNTLYLQMNSLKTEDTAVYYCVRHGNFGNSYVSWFAYWGQGTLVTVSS VL: QAVVTQEPSLTVSPGGTVTLTCGSSTGAVTTSNYANWVQQKPGQAFRGLIGGTNKRAPGVPDRFSGSLLGGKAALTISGAQPEDEAEYYCALWYSNLWVFGGGTKLTVL | 119 | 39400 | 9950 | 2760 | 559 | 637 | 27900 | 986 | –
HuL1H1 (Fab, V domains shown, Detected with anti-human kappa; also called VL1 + VH1 humanized Fab) VH: EVQLVESGGGLVQPGGSLKLSCAASGFTFNTYAMNWVRQASGKGLEWVGRIRSKYNNYATYYADSVKDRFTISRDDSKNTLYLQMNSLKTEDTAVYYCVRHGNFGNSYVSWFAYWGQGTLVTVSS VL: QAVVTQEPSLTVSPGGTVTLTCGSSTGAVTTSNYANWFQQKPGQAPRTLIYGTNKRAPWTPARFSGSLLGGKAALTISGAQPEDEAEYYCALWYSNLWVFGGGTKLTVL | – | 1470 | 1450 | 1450 | 1400 | 1400 | 1460 | 1440 | –
HuL10H2 (Fab, V domains shown, Humanized Fab expressed in Expi293F; also called VL10 + VH2 humanized Fab) VH: EVQLVESGGGLVQPGGSLKLSCAASGFTFNTYAMNWVRQASGKGLEWVARIRSKYNNYATYYADSVKDRFTISRDDSKNTLYLQMNSLKTEDTAVYYCVRHGNFGNSYVSWFAYWGQGTLVTVSS VL: QAVVTQEPSLTTSPGGTVTLTCRSSTGAVTTSNYANWVQQKPDHLFTGLIGGTNKRAPGVPARFSGSLIGDKAALTISGAQPEDEAEYYCALWYSNLWVFGGGTKLTVL | 139 | 46300 | 12700 | 3270 | 559 | 688 | 31300 | 1610 | –
HuL7H2 (Fab, V domains shown, Humanized Fab expressed in Expi293F; also called VL7 + VH2 humanized Fab) VH: EVQLVESGGGLVQPGGSLKLSCAASGFTFNTYAMNWVRQASGKGLEWVARIRSKYNNYATYYADSVKDRFTISRDDSKNTLYLQMNSLKTEDTAVYYCVRHGNFGNSYVSWFAYWGQGTLVTVSS VL: QAVVTQEPSLTVSPGGTVTLTCRSSTGAVTTSNYANWVQQKPGQAFRGLIGGTNKRAPGTPARFSGSLLGDKAALTISGAQPEDEAEYYCALWYSNLWVFGGGTKLTVL | 70.4 | 35400 | 13600 | 4240 | 1250 | 1570 | 28900 | 2040 | –
HuL8H2 (Fab, V domains shown, Humanized Fab expressed in Expi293F; also called VL8 + VH2 humanized Fab) VH: EVQLVESGGGLVQPGGSLKLSCAASGFTFNTYAMNWVRQASGKGLEWVARIRSKYNNYATYYADSVKDRFTISRDDSKNTLYLQMNSLKTEDTAVYYCVRHGNFGNSYVSWFAYWGQGTLVTVSS VL: QAVVTQEPSLTVSPGGTVTLTCGSSTGAVTTSNYANWVQQKPDHLFRGLIGGTNKRAPGTPARFSGSLLGGKAALTISGAQPEDEAEYYCALWYSNLWVFGGGTKLTVL | 78 | 54600 | 22000 | 7670 | 559 | 837 | 42000 | 2120 | –
HuL6H2 (Fab, V domains shown, Humanized Fab expressed in Expi293F; also called VL6 + VH2 humanized Fab) VH: EVQLVESGGGLVQPGGSLKLSCAASGFTFNTYAMNWVRQASGKGLEWVARIRSKYNNYATYYADSVKDRFTISRDDSKNTLYLQMNSLKTEDTAVYYCVRHGNFGNSYVSWFAYWGQGTLVTVSS VL: QAVVTQEPSLTVSPGGTVTLTCRSSTGAVTTSNYANWFQQKPDHLPRTLIYGTNKRAPGTPARFSGSLLGDKAALTISGAQPEDEAEYYCALWYSNLWVFGGGTKLTVL | 677 | 2200 | 598 | 573 | 559 | 572 | 835 | 597 | –
huL5H2 (heavy chain SEQ ID NO: 41 and light chain SEQ ID NO: 39) (Fab, V domains shown, also called VL5 kappa + H2 Fab) VH: EVQLVESGGGLVQPGGSLKLSCAASGFTFNTYAMNWVRQASGKGLEWVARIRSKYNNYATYYADSVKDRFTISRDDSKNTLYLQMNSLKTEDTAVYYCVRHGNFGNSYVSWFAYWGQGTLVTVSS VL: QAVVTQEPSLTVSPGGTVTLTCRSSTGAVTTSNYANWVQQKPDHLFRGLIGGTNKRAPGTPARFSGSLLGDKAALTISGAQPEDEAEYYCALWYSNLWVFGGGTKLTVLK | 4.46 | 51800 | 41600 | 31700 | 1400 | 4430 | 48000 | 13400 | –
HuL2H2 (Fab, V domains shown, Humanized Fab expressed in Expi293F; also called VL2 + VH2 humanized Fab) VH: EVQLVESGGGLVQPGGSLKLSCAASGFTFNTYAMNWVRQASGKGLEWVARIRSKYNNYATYYADSVKDRFTISRDDSKNTLYLQMNSLKTEDTAVYYCVRHGNFGNSYVSWFAYWGQGTLVTVSS VL: QAVVTQEPSLTVSPGGTVTLTCGSSTGAVTTSNYANWVQQKPGQAFRGLIYGTNKRAPWTPARFSGSLLGGKAALTISGAQPEDEAEYYCALWYSNLWVFGGGTKLTVL | – | 1470 | 1450 | 1450 | 1400 | 1400 | 1460 | 1440 | –
HuL4H2 (Fab, V domains shown, Humanized Fab expressed in Expi293F; also called VL4 + VH2 humanized Fab) VH: EVQLVESGGGLVQPGGSLKLSCAASGFTFNTYAMNWVRQASGKGLEWVARIRSKYNNYATYYADSVKDRFTISRDDSKNTLYLQMNSLKTEDTAVYYCVRHGNFGNSYVSWFAYWGQGTLVTVSS VL: QAVVTQEPSLTVSPGGTVTLTCGSSTGAVTTSNYANWVQQKPGQAFRGLIYGTNKRAPWTPARFSGSLLGDKAALTISGAQPEDEAEYYCALWYSNLWVFGGGTKLTVL | – | 650 | 620 | 620 | 559 | 599 | 620 | 615 | –
UCHT-1-p-TriA (2×DUPA) (Fab, V domains shown, one pAcF conjugated to p-TriA (DUPA-linker); position in UCHT-1 not stated) VH: EVQLVESGGGLVQPGGSLRLSCAASGYSFTGYTMNWVRQAPGKGLEWVALINPYKGVSTYNQKFKDRFTISVDKSKNTAYLQMNSLRAEDTAVYYCARSGYYGDSDWYFDVWGQGTLVTVSS VL: DIQMTQSPSSLSASVGDRVTITCRASQDIRNYLNWYQQKPGKAPKLLIYYTSRLESGVPSRFSGSGSGTDYTLTISSLQPEDFATYYCQQGNTLPWTFGQGTKVEIKR | – | – | – | – | – | – | – | – | no binding
